Changes are numbered by the printed parent chain. Starred links: 1 amine or outer side, 2 acyl side, 3 side chain; linkers in the order of their positions; H or OH if unused. Non-standard residues stand in square brackets, D forms with d. Groups on a side chain read outwards from the residue. No end group written: not given here. *: point of attachment. C20 diacid = O=C(O)CCCCCCCCCCCCCCCCCCC(=O)*; γGlu = O=C(O)[C@H](CCC(=O)[*:2])N[*:1]; εLys = N[C@@H](CCCCN[*:1])C(=O)[*:2]; AEEA = NCCOCCOCC(=O)O; Aib = CC(C)(N)C(=O)O

Experimental findings from patent US20240247080A1, “GLP1/GIP/NPY2 RECEPTOR TRIPLE AGONISTS” (Boehringer Ingelheim International GmbH, priority 2022, published 2024) are described below.

Holding throughout (test): cell-based or functional assay
One experiment addresses GLP-1 receptor (human (printed as hGLP1R), UniProt P43220 24-463).
Another experiment deals with T1, GIP receptor (human (printed as hGIPR), UniProt P48546 22-466).
T1 sequence (looked up): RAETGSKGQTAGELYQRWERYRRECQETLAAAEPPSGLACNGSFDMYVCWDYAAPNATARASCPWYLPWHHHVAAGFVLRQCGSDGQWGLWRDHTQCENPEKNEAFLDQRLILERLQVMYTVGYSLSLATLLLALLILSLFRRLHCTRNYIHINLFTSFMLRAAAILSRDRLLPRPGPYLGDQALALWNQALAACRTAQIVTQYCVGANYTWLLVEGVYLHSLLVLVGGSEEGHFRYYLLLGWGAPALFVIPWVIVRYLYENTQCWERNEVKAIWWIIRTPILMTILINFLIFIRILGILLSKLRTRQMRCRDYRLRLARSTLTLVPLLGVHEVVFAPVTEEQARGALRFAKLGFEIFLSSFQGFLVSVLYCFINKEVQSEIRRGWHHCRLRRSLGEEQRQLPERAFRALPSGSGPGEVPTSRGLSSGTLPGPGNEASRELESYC

Another experiment deals with T2, NPY2 receptor (human (printed as hNPY2R), UniProt P49146 1-381).
T2 sequence (looked up): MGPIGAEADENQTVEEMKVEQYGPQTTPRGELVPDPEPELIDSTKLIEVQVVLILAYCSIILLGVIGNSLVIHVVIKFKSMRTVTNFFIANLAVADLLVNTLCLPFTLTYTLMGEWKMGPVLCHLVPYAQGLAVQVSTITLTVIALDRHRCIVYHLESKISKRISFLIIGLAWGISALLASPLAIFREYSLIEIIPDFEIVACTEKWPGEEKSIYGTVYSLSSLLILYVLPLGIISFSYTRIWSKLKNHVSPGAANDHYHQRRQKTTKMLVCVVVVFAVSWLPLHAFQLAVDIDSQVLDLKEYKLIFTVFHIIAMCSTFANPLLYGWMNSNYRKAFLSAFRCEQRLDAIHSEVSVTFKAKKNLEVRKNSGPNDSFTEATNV

As for Y[Aib]EGTFTSDYSI[Aib]LEKQAQ[Aib]AFVQWLIK([εLys-Glu-Glu-Glu-Glu-Glu-C20 diacid])GGPSEGASLRHYYNWLTRQRY-NH2 (also: TFA salt) [Compound 240], in the experiment with GLP-1 receptor, the “EC50 hGLP1R 0.5% hP (CreLuc)” value was found to be 0.14 nM and the “EC50 hGLP1R 100% hP (CreLuc)” value is 6.74 nM. In the experiment with GIP receptor, the “EC50 hGIPR 0.5% hP (CreLuc)” value came to 0.33 nM and the “EC50 hGIPR 100% hP (CreLuc)” value is 1.97 nM. Further, in the experiment with NPY2 receptor, the “EC50 hNPY2R 0.5% hP (CreLuc)” value stood at 10.7 nM and the “EC50 hNPY2R 100% hP (CreLuc)” value came out at 77.5 nM.

Consider Y[Aib]EGTFTSDYSI[Aib]LEKQAQ[Aib]AFVQWLIK([AEEA-AEEA-Glu-Glu-Glu-Glu-C20 diacid])GGPSEGASLRHYYNWLTRQRY-NH2 (also: TFA salt) [Compound 239], for which, in the experiment with GLP-1 receptor, the “EC50 hGLP1R 0.5% hP (CreLuc)” value amounted to 0.11 nM and the “EC50 hGLP1R 100% hP (CreLuc)” value came out at 4.76 nM. In addition, in the experiment with GIP receptor, the “EC50 hGIPR 0.5% hP (CreLuc)” value turned out to be 0.35 nM and the “EC50 hGIPR 100% hP (CreLuc)” value worked out at 1.55 nM. Further, in the experiment with NPY2 receptor, the “EC50 hNPY2R 0.5% hP (CreLuc)” value is 13.6 nM and the “EC50 hNPY2R 100% hP (CreLuc)” value was 57 nM.

As to Y[Aib]EGTFTSDYSI[Aib]LEKQAQ[Aib]AFVQWLIKGGPSEGASLRHYYNWLTRQRY-NH2 (not fully specified (residue 28); also: TFA salt) [Compound 243], in the experiment with GLP-1 receptor, the “EC50 hGLP1R 0.5% hP (CreLuc)” value was 0.12 nM and the “EC50 hGLP1R 100% hP (CreLuc)” value came to 5.96 nM. Further, in the experiment with GIP receptor, the “EC50 hGIPR 0.5% hP (CreLuc)” value amounted to 0.54 nM and the “EC50 hGIPR 100% hP (CreLuc)” value was determined as 2.97 nM. In the experiment with NPY2 receptor, the “EC50 hNPY2R 0.5% hP (CreLuc)” value came out at 9.16 nM and the “EC50 hNPY2R 100% hP (CreLuc)” value was 50.6 nM.

B1: Compound 236 (peptide)
peptide: YXEGTFTSDYSIXLEKQAQXAFVEWLIKGGPSEGASLRHYYNWLTRQRY
modifications: Aib at 2, 13, 20; NMeR (N-methyl-L-arginine) at 48; K28 side chain carries C20DA-gGlu-gGlu-gGlu-gGlu-gGlu-gGlu-eLys; C-terminal amide
On to B1, for which, in the experiment with GLP-1 receptor, the “EC50 hGLP1R 0.5% hP (CreLuc)” value was 0.26 nM and the “EC50 hGLP1R 100% hP (CreLuc)” value was found to be 3.42 nM. For the same molecule, in the experiment with GIP receptor, the “EC50 hGIPR 0.5% hP (CreLuc)” value turned out to be 0.3 nM and the “EC50 hGIPR 100% hP (CreLuc)” value was determined as 1.41 nM. Moreover, in the experiment with NPY2 receptor, the “EC50 hNPY2R 0.5% hP (CreLuc)” value came to 31 nM and the “EC50 hNPY2R 100% hP (CreLuc)” value came to 86.6 nM.

B2: Compound 238 (peptide)
peptide: B1 peptide with E33S
modifications: Aib at 2, 13, 20; K28 side chain carries C20DA-gGlu-gGlu-gGlu-gGlu-gGlu; C-terminal amide
For the molecule B2, in the experiment with GLP-1 receptor, the “EC50 hGLP1R 0.5% hP (CreLuc)” value came out at 0.1 nM and the “EC50 hGLP1R 100% hP (CreLuc)” value came to 2.55 nM. Moreover, in the experiment with GIP receptor, the “EC50 hGIPR 0.5% hP (CreLuc)” value stood at 0.52 nM and the “EC50 hGIPR 100% hP (CreLuc)” value turned out to be 1.59 nM. For the same molecule, in the experiment with NPY2 receptor, the “EC50 hNPY2R 0.5% hP (CreLuc)” value worked out at 11.6 nM and the “EC50 hNPY2R 100% hP (CreLuc)” value came to 49.4 nM.

B3: Compound 241 (peptide)
peptide: B1 peptide with A35V
modifications: Aib at 2, 13, 20; K28 side chain carries C20DA-gGlu-gGlu-gGlu-gGlu-gGlu-gGlu-eLys; C-terminal amide
As to B3, in the experiment with GLP-1 receptor, the “EC50 hGLP1R 0.5% hP (CreLuc)” value stood at 0.77 nM and the “EC50 hGLP1R 100% hP (CreLuc)” value turned out to be 9.65 nM. Also, in the experiment with GIP receptor, the “EC50 hGIPR 0.5% hP (CreLuc)” value stood at 0.69 nM and the “EC50 hGIPR 100% hP (CreLuc)” value stood at 4.36 nM. In addition, in the experiment with NPY2 receptor, the “EC50 hNPY2R 0.5% hP (CreLuc)” value worked out at 16.6 nM and the “EC50 hNPY2R 100% hP (CreLuc)” value came to 34.1 nM.

B4: Compound 237 (peptide)
peptide: B1 peptide with A35E
modifications: Aib at 2, 13, 20; K28 side chain carries C20DA-gGlu-gGlu-gGlu-gGlu-gGlu-gGlu-eLys; C-terminal amide
For the molecule B4, in the experiment with GLP-1 receptor, the “EC50 hGLP1R 0.5% hP (CreLuc)” value was 0.26 nM and the “EC50 hGLP1R 100% hP (CreLuc)” value is 3.11 nM. Moreover, in the experiment with GIP receptor, the “EC50 hGIPR 0.5% hP (CreLuc)” value turned out to be 0.1 nM and the “EC50 hGIPR 100% hP (CreLuc)” value amounted to 1.17 nM. Moreover, in the experiment with NPY2 receptor, the “EC50 hNPY2R 0.5% hP (CreLuc)” value is 18 nM and the “EC50 hNPY2R 100% hP (CreLuc)” value amounted to 45.5 nM.

For the molecule Y[Aib]EGTFTSDYSI[Aib]LEKQAQ[Aib]AFVQWLIK([εLys-γGlu-γGlu-γGlu-γGlu-γGlu-C20 diacid])GGPSEGASLRHYYNWLTRQRY-NH2 (also: TFA salt) [Compound 242], in the experiment with GLP-1 receptor, the “EC50 hGLP1R 0.5% hP (CreLuc)” value was determined as 0.13 nM and the “EC50 hGLP1R 100% hP (CreLuc)” value was determined as 4.69 nM. In the experiment with GIP receptor, the “EC50 hGIPR 0.5% hP (CreLuc)” value came out at 0.32 nM and the “EC50 hGIPR 100% hP (CreLuc)” value turned out to be 1.72 nM. Further, in the experiment with NPY2 receptor, the “EC50 hNPY2R 0.5% hP (CreLuc)” value is 7.54 nM and the “EC50 hNPY2R 100% hP (CreLuc)” value was 28.8 nM.
